Data on 3 molecules can be found in patent EP4279506A1 (Persongen Biotherapeutics (Suzhou) Co., Ltd., dated 2023).

Assay [1] concerns the target B7-H3-His recombinant protein (UniProt Q5ZPR3). The assay is described as follows: SPR; B7-H3-His on CM5 chip, antibody as mobile phase. In general terms: Surface plasmon resonance follows binding to a sensor surface in real time, without labels.
Assay [2] concerns the target T1, human 4Ig-B7-H3 (h4IgB7H3) expressed on Raji cells (human, UniProt Q5ZPR3 29-534).
T1 construct: whole, on cells; also called h4IgB7H3-Raji
T1 sequence (looked up): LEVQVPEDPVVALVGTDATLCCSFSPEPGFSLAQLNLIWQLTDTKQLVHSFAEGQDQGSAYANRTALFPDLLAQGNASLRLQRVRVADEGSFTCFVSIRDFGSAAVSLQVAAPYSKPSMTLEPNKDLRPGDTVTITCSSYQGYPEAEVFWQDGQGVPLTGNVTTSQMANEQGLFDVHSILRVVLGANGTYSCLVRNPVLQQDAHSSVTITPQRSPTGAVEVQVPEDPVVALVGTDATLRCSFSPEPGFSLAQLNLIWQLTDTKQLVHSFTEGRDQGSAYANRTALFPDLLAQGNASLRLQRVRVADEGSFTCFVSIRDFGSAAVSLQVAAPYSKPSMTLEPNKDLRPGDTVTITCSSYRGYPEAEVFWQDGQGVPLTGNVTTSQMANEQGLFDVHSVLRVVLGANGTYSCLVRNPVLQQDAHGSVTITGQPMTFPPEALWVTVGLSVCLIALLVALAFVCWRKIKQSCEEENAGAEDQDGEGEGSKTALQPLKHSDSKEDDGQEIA
The experiment in a line: flow cytometry on h4IgB7H3-Raji cells.

In assay [3] the target is T2, murine 2Ig-B7-H3 (m2IgB7H3) expressed on Raji cells (mouse, UniProt Q8VE98 29-316).
T2 construct: whole, on cells; also called m2IgB7H3-Raji; mB7-H3-Raji
T2 sequence (looked up): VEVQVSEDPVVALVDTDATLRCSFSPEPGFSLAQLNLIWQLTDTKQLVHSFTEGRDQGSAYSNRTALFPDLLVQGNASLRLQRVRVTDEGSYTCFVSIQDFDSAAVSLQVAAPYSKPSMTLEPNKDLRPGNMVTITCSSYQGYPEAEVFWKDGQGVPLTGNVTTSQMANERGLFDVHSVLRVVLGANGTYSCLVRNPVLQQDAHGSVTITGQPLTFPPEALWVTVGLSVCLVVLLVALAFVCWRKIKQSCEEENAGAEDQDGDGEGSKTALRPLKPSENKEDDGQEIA
The experiment in a line: flow cytometry on m2IgB7H3-Raji cells. A general note: A flow cytometer gives signals particle by particle.

B1: mouse anti-human mB7-H3 antibody (antibody, V domains shown)
VH: EVTLVESGGGLVKPGGSLKLSCAASGFTFSTYVMSWVRQTPEKRLEWVASILSGGTSFYADNVKGRFTISRENARNILYLQMSSLKSEDTAMYYCVRRYGHDHYYAMDYWGQGTSVTVSS
VL: QIVLTQSPANMSASLGERVTMTCAASSSVSSSYLHWYQQKPGSSPKLWIYSTSNLASGVPGRFNGSGSGTSYSLTISSMEAEDAATYYCHQYHRSPWTFGGGTKLEIK
On to B1, for which, in assay [1], the Kd was determined as 70.8 nM, the koff was found to be 0.00258 s⁻¹ and the kon was 36400 M⁻¹ s⁻¹.

B2: humanized B7-H3 antibody T1H1-T1L1 (αhB7-H3 antibody) (antibody, V domains shown)
VH: EVQLVESGGGLIQPGGSLRLSCAASGFTFSTYVMSWVRQAPGKGLEWVSSILSGGTSFYADNVKGRFTISRDNSKNTLYLQMNSLRAEDTAVYYCARRYGHDHYYAMDYWGQGTLVTVSS
VL: EIVLTQSPATLSLSPGERATLSCAASSSVSSSYLHWYQQKPGLAPRLLIYSTSNLASGIPDRFSGSGSGTDFTLTISRLEPEDFAVYYCQQYHRSPWTFGGGTKVEIK
notes: They were subcloned into the pcDNA3.1-IgG1Fc (heavy) and pcDNA3.1-IgKc (light) expression vectors; The antibody was detected with anti-human IgG; also called αhB7-H3 Ab; B7-H3 T1H1-T1L1
As for B2, the binding result in assay [2] is listed as “binds”. Further, the binding result in assay [3] is given as “binds”. In assay [1], the Kd came to 114 nM, the koff stood at 0.00282 s⁻¹ and the kon was 24800 M⁻¹ s⁻¹.

B3: humanized B7-H3 antibody T2H1-T2L1 (βhB7-H3 antibody) (antibody, V domains shown)
VH: EVQLVESGGGVVRPGGSLRLSCAASGFTFSTYVMSWVRQAPGKGLEWVSSILSGGTSFYADNVKGRFTISRDNAKNSLYLQMNSLRAEDTALYHCARRYGHDHYYAMDYWGQGTTVTVSS
VL: DIQMTQSPSTLSASVGDRVTITCAASSSVSSSYLHWYQQKPGKAPKLLIYSTSNLASGVPSRFSGSGSGTEFTLTISSLQPDDFATYYCQQYHRSPWTFGQGTKLEIK
Turning to B3, in assay [1], the Kd was found to be 72.8 nM, the koff was determined as 0.00289 s⁻¹ and the on-rate constant (kon) was 39700 M⁻¹ s⁻¹.

As a reminder, the Kd is the concentration at which binding is half-saturated. The term koff denotes the first-order rate constant of dissociation. One may read the kon as a measure of how fast the partners come together.
